Blank lines part the entries; values can stand above or below the molecule they belong to.
Key:
PAML_A1 [1] = test system: T1, PAML_A1; assay: trans-cinnamic acid formation at […] nm, Michaelis-Menten fit; format: biochemical, synthetic construct; settings: 50 mM Tris-HCl, pH 9.2, 37 °C; read-out: L-Phe^a / KM^c
T1 construct: N-terminal 6xHis tag, E. coli BL21(DE3); tetramer

MEGA_A3 [2] = test system: T2, MEGA_A3; assay: as above; format: biochemical, synthetic construct; settings: 50 mM Tris-HCl, pH 9.2, 37 °C; read-out: L-Phe^a / KM^c
T2 construct: N-terminal 6xHis tag, E. coli BL21(DE3); tetramer

PAML_A2 = test system: T3, PAML_A2; assay: as above; format: biochemical, synthetic construct; settings: 50 mM Tris-HCl, pH 9.2, 37 °C; read-out: L-Phe^a / KM^c
T3 construct: N-terminal 6xHis tag, E. coli BL21(DE3); tetramer

MEGA_A1 [3] = test system: T4, MEGA_A1; assay: as above; format: biochemical, synthetic construct; settings: 50 mM Tris-HCl, pH 9.2, 37 °C; read-out: L-Phe^a / KM^c
T4 construct: N-terminal 6xHis tag, E. coli BL21(DE3); tetramer

MEGA_A3 [4] = test system: T2, MEGA_A3; assay: p-coumaric acid formation at […] nm, Michaelis-Menten fit; format: biochemical, synthetic construct; settings: 50 mM Tris-HCl, pH 9.2, 37 °C; read-out: L-Tyr^a / KM^c
PAML_A1 [5] = test system: T1, PAML_A1; assay: as above; format: biochemical, synthetic construct; settings: 50 mM Tris-HCl, pH 9.2, 37 °C; read-out: L-Tyr^a / KM^c
MEGA_A1 [6] = test system: T4, MEGA_A1; assay: as above; format: biochemical, synthetic construct; settings: 50 mM Tris-HCl, pH 9.2, 37 °C; read-out: L-Tyr^a / KM^c
[7] = biological target: PAL/TAL from Rhodotorula glutinis (RgPAL) (Rhodotorula glutinis); assay: SEC-MALS; analytical SEC on Superdex200 Increase 10/300 GL in filtered PBS pH 7.4, 50 ul of ca. 1-2 mg/ml enzyme, 0.75 ml/min, miniDAWN MALS detector; self-association (tetramer and larger oligomers)
[8] = biological target: PAL/TAL from Trichosporon cutaneum (TcPAL) (Trichosporon cutaneum); assay: as above
purified protein [9] = substrate: N[C@@H](Cc1ccc(O)cc1)C(=O)O; assay: purified protein; format: biochemical, Rhodotorula glutinis; settings: 50 mM Tris-HCl, pH 9.2, 37 °C
purified protein [10] = substrate: N[C@@H](Cc1ccccc1)C(=O)O; assay: purified protein; format: biochemical, Rhodotorula glutinis; settings: 50 mM Tris-HCl, pH 9.2, 37 °C

Km (MEGA_A3 [4]): 50 ± 10 µM
Km (PAML_A1 [5]): 2690 ± 10 µM
Km (MEGA_A1 [6]): 400 ± 20 µM
Molecule: N[C@@H](Cc1ccc(O)cc1)C(=O)O [L-tyrosine]

stoichiometry N [7]: 4
Molecule: PAL/TAL from Rhodotorula glutinis (RgPAL) (enzyme)

stoichiometry N [8]: 4
Molecule: PAL/TAL from Trichosporon cutaneum (TcPAL) (enzyme)

The remaining lines, values behind:

Molecule: N[C@@H](Cc1ccccc1)C(=O)O [L-phenylalanine]
Km (PAML_A1 [1]): 4480 ± 620 µM
Km (MEGA_A3 [2]): 350 ± 30 µM
Km (PAML_A2): 690 ± 150 µM
Km (MEGA_A1 [3]): 3830 ± 970 µM

B1: RgPAL (Rhodotorula glutinis) (protein)
chain: MAPSVDSIATSVANSLSNGLHAAAAANGGDVHKKTAGAGSLLPTTETTQLDIVERILADAGATDQIKLDGYTLTLGDVVGAARRGRSVKVADSPHIREKIDASVEFLRTQLDNSVYGVTTGFGGSADTRTEDAISLQKALLEHQLCGVLPTSMDGFALGRGLENSLPLEVVRGAMTIRVNSLTRGHSAVRIVVLEALTNFLNHGITPIVPLRGTISASGDLSPLSYIAASITGHPDSKVHVDGKIMSAQEAIALKGLQPVVLGPKEGLGLVNGTAVSASMATLALTDAHVLSLLAQALTALTVEAMVGHAGSFHPFLHDVTRPHPTQIEVARNIRTLLEGSKYAVHHETEVKVKDDEGILRQDRYPLRCSPQWLGPLVSDMIHAHAVLSLEAGQSTTDNPLIDLENKMTHHGGAFMASSVGNTMEKTRLAVALMGKVSFTQLTEMLNAGMNRALPSCLAAEDPSLSYHCKGLDIAAAAYTSELGHLANPVSTHVQPAEMGNQAINSLALISARRTAEANDVLSLLLATHLYCVLQAVDLRAMEFEHTKAFEPMVTELLKQHFGALATAEVEDKVRKSIYKRLQQNNSYDLEQRWHDTFSVATGAVVEALAGQEVSLASLNAWKVACAEKAIALTRSVRDSFWAAPSSSSPALKYLSPRTRVLYSFVREEVGVKARRGDVYLGKQEVTIGTNVSRIYEAIKSGRIAPVLVKMMA
notes: full-length codon-optimized gene, N-terminal 6xHis tag, pET22b(+), E. coli BL21(DE3); homotetramer; MIO cofactor from Ala-Ser-Gly
Km (purified protein [9]): 280 ± 10 µM
kcat (purified protein [9]): 1.71 ± 0.11 s⁻¹
kcat/Km (purified protein [9]): 6300 ± 288 M⁻¹ s⁻¹
Km (purified protein [10]): 1350 ± 100 µM
kcat (purified protein [10]): 8.95 ± 0.37 s⁻¹
kcat/Km (purified protein [10]): 6660 ± 259 M⁻¹ s⁻¹

Reference: PMC6987202, “Exploring the therapeutic potential of modern and ancestral phenylalanine/tyrosine ammonia-lyases as supplementary treatment of hereditary tyrosinemia” (Scientific Reports, 2020)
